The values below come from patent publication US20050288225A1 (YEDA RESEARCH AND DEVELOPMENT, published 2005).

This test deals with T1, HA-tagged B1 protein (Homo sapiens (Human), UniProt O43353 1-540).
T1 construct: Expressed in transfected 293 cells for co-immunoprecipitation; also called HA-B1
The test is described as follows: co-immunoprecipitation from transfected 293 cells: anti-FLAG IP, anti-HA western blot. In general terms: A western blot detects proteins with antibodies after separation by electrophoresis.

T1 sequence (O43353 whole entry L79F): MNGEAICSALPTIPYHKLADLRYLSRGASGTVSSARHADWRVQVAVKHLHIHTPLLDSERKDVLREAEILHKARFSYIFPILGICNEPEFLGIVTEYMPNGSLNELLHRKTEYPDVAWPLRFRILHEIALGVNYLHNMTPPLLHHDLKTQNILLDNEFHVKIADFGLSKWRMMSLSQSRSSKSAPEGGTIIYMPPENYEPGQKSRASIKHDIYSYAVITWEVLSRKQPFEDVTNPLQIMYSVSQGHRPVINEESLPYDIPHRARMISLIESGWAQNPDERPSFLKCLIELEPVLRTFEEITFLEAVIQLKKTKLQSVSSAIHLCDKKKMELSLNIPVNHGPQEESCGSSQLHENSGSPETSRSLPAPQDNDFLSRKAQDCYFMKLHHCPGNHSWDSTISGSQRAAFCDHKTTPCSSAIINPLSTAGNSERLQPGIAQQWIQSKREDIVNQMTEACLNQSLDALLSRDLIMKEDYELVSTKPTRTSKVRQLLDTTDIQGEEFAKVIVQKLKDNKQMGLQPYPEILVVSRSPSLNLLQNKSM
Description: Seven hours after transfection cells were washed and 18 hours later cells were lysed in a buffer containing 50 mM HEPES pH 7.5, 250 mM NaCl, 0.2% NP-40, 5 mM EDTA, 1 mM phenylmethylsulfonyl fluoride, 2.0 μg/ml aprotinin and 20 μg/ml leupeptin (lysis buffer). Immunoprecipitation was performed by incubation (2hours, 4° C.) of 1 ml aliquots of lysate with anti-FLAG epitope antibody (5 μg/aliquot) and with protein G-agarose beads (30 μl/aliquot). Immunoprecipitates were washed three times with lysis buffer and once with PBS, fractionated by 10% SDS-PAGE and transferred to a nitrocellulose membrane (Schleicher & Schuell, Dassel, Germany). Western blot analysis was performed with anti-HA epitope monoclonal antibodies applied at a dilution of 1:1000, and the ECL kit (Amersham, Buckinghamshire, England).

B1: Flag-tagged TRAF2 (other, UniProt Q12933 1-501, looked up, not shown: small tags and cut ends)
chain: MAAASVTPPGSLELLQPGFSKTLLGTKLEAKYLCSACRNVLRRPFQAQCGHRYCSFCLASILSSGPQNCAACVHEGIYEEGISILESSSAFPDNAARREVESLPAVCPSDGCTWKGTLKEYESCHEGRCPLMLTECPACKGLVRLGEKERHLEHECPERSLSCRHCRAPCCGADVKAHHEVCPKFPLTCDGCGKKKIPREKFQDHVKTCGKCRVPCRFHAIGCLETVEGEKQQEHEVQWLREHLAMLLSSVLEAKPLLGDQSHAGSELLQRCESLEKKTATFENIVCVLNREVERVAMTAEACSRQHRLDQDKIEALSSKVQQLERSIGLKDLAMADLEQKVLEMEASTYDGVFIWKISDFARKRQEAVAGRIPAIFSPAFYTSRYGYKMCLRIYLNGDGTGRGTHLSLFFVVMKGPNDALLRWPFNQKVTLMLLDQNNREHVIDAFRPDVTSSSFQRPVNDMNIASGCPLFCPVSKMEAKNSYVRDDAIFIKAIVDLTGL
notes: Expressed in transfected 293 cells; also called FL-TRAF2
For the molecule B1, the binding result is given as “no binding”.
